Test results published in patent publication US7250265B2, “Method of detecting and evaluating angiotensinogen receptor-modulating compounds using placental cells” (Marshfield Clinic, priority 2001, dated 2007).

What was measured:
[1] = system: AGT receptor on CRL-7548 placental cells; assay: Competitive binding study (unlabeled AGT added at zero time); set-up: species or system human; conditions: prior addition of 100-fold excess of unlabeled AGT, FIG. 2
Procedure: (§1) Cell Culture: CRL-7548 placental cells obtained from American Type Culture Collection were cultured in 89% Dulbecco's modification of Eagle medium (DEME) (Cellgro, Herndon, Va.), 10% fetal bovine serum (FBS) (Sigma, St. Louis, Mo.), 1% penicillin-streptomycin (5,000 U/ml and 5,000 μg/ml) (Cellgro) in a humidified atmosphere of 5.0% CO2 and […] at 37° C. The cells were passed in FBS-free DEME before experimentation, seeded in 35 mm diameter plastic wells and cultured for two days to reach about 80-90% confluence.
(§2) Purified AGT was labeled with ^125I using iodobeads Pierce, Rockford, Ill.), 5 mCi/0.5 mg AGT in 0.1 mol/L sodium phosphate buffer, pH 6.0. The bound isotope was separated from the free isotope by gel filtration on Sephadex G-25.
(§3) Labeled AGT, 3 μg, was added to each well containing 1 ml DEME and 2-3×10^4 cells. The cells were harvested at 5 min, and 2, 4, 8, 16 and 24 h, washed five times with DEME, lysed in a buffer containing 0.1 mol/L Tris, 2 mmol/L EDTA, 1% Triton-X 100, 1 μmol/L DTT, pH 7.8, and the radioactivity of the whole lysate measured. Each experiment contained two duplicates and the reported values are the mean of two experiments. The results are presented graphically in FIG. 1
This Example was carried out as described in Example 1, except that a 100-fold excess of unlabeled AGT was added at zero time. The cells were harvested at 5 min, and 4, 8 and 24 h. […]

CRL-7548 placental cells = assay: Acid wash study (surface-bound versus internalized AGT); assay type: cell-based, human; conditions: for bound AGT removed from the cells by acid wash: 0.2 mol/L acetic acid, 0.5 mol/L NaCl, pH 2.5, 4° C., at 8 h
Procedure: as §1, §2, §3
This Example was carried out as described in Example 1. At 8 h, the cells in one set of duplicate wells were washed five times with DEME. Another set of duplicate samples were incubated with 0.2 mol/L acetic acid, 0.5 mol/L NaCl, pH 2.5, on ice (4° C.) for 6 min, and then washed five times with the acid wash. The control duplicates and the acid-washed duplicates were lysed and radioactivity was measured.

CRL-7458 fibroblasts = assay: AGT uptake in other placental cell lines; assay type: cell-based; conditions: fibroblasts from human placenta at 37 weeks gestation (CRL-7458)
Source text: (§4) The cells used in Examples 1-4 are fibroblasts originally derived from a human placenta obtained at 5 months gestation. Binding studies were also done with fibroblasts derived from a human placenta obtained at 37 weeks gestation (CRL-7458) and with fibroblasts derived from a human placenta at 40 weeks gestation (CRL-7459). These cells also took up AGT.

CRL-7459 fibroblasts = assay: AGT uptake in other placental cell lines; assay type: cell-based; conditions: fibroblasts from human placenta at 40 weeks gestation (CRL-7459)
Source text: as §4

[2] = system: AGT receptor on CRL-7548 placental cells; assay: Competitive displacement study (unlabeled AGT added at 8 h); assay type: binding, human
Procedure: as §1, §2, §3
[…] The cells were harvested at 5 min and at 2 intervals through 18 h.

[3] = system: AGT receptor on CRL-7548 placental cells; assay: AGT binding: 125I-labeled AGT bound by placental-derived cells; set-up: species or system human; conditions: 3 μg labeled AGT per well, 2-3×10^4 CRL-7548 cells, FIG. 1
Procedure: as §1
The AGT used in the Examples was purified from human plasma as described in Tewksbury (1983) Fed. Proc. 42:2724-2728; and Tewksbury et al. (1981) Biochem. Biophys. Res. Commun. 99:1311-1315. The specific Ang I content was 20 μg Ang I/mg protein. The theoretical value is 21 μg Ang I/mg protein.
as §2
as §3, with “Each experiment contained two duplicates and the reported values are the mean of two experiments. The results are presented graphically in FIG. 1” left out

[4] = from displacement by unlabeled AGT

B1: angiotensinogen (protein, UniProt P01019 25-476, looked up)
Angiotensinogen: DRVYIHPFHLVIHNESTCEQLAKANAGKPKDPTFIPAPIQAKTSPVDEKALQDQLVLVAAKLDTEDKLRAAMVGMLANFLGFRIYGMHSELWGVVHGATVLSPTAVFGTLASLYLGALDHTADRLQAILGVPWKDKNCTSRLDAHKVLSALQAVQGLLVAQGRADSQAQLLLSTVVGVFTAPGLHLKQPFVQGLALYTPVVLPRSLDFTELDVAAEKIDRFMQAVTGWKTGCSLMGASVDSTLAFNTYVHFQGKMKGFSLLAEPQEFWVDNSTSVSVPMLSGMGTFQHWSDIQDNFSVTQVPFTESACLLLIQPHYASDLDKVEGLTFQQNSLNWMKKLSPRTIHLTMPQLVLQGSYDLQDLLAQAELPAILHTELNLQKLSNDRIRVGEVLNSIFFELEADEREPTESTQQLNKPEVLEVTLNRPFLFAVYDQSATALHFLGRVANPLSTA
notes: AGT purified from human plasma; specific Ang I content 20 μg Ang I/mg protein
decrease in maximal binding of 125I-AGT [1]: 54% | bound AGT removed from the cells by acid wash (CRL-7548 placental cells): 46% | bound AGT internalized by the cells (CRL-7548 placental cells; inferred from acid wash at 8 h): about half | AGT uptake (CRL-7458 fibroblasts): took up AGT | AGT uptake (CRL-7459 fibroblasts): took up AGT | bound 125I-AGT displaced ([2]; excess of unlabeled AGT added, FIG. 3): 70% | share of AGT bound to an AGT-specific receptor [2, 4]: 70% | share of total binding attributed to nonspecific binding [2, 4]: approximately 30%

B2: ^125I-AGT: Purified AGT labeled with ^125I using iodobeads (protein, UniProt P01019 25-476, looked up)
Angiotensinogen: B1 Angiotensinogen
modifications: 125I label
notes: Purified AGT labeled with ^125I using iodobeads
time to saturation of binding by placental-derived cells [3]: 2 to 4 h | bound AGT removed from the cells by acid wash (CRL-7548 placental cells): 46%
